We go through one substance from publication PMC10753161.

In assay [1] the target is His-tagged StBIN2 protein (potato (Solanum tuberosum)).
The target of assay [2] is StBIN2-M (potato (Solanum tuberosum)).

Take “His-tagged StSN2 protein (from UniProt Q93X17 24-104) (natural protein)”: the StBIN2 kinase activity as ATP consumption (Kinase-Lumi), 5 μg StBIN2 with varying masses of StSN2 up to 15 μg, against StBIN2 alone in assay [1] came out at 10 fold. In assay [2], the ATP consumed by StBIN2-M with StSN2 against StBIN2 with StSN2; 5 μg kinase + 5, 10 and 15 μg StSN2 (reduced by 63%, 14% and 12%) stood at 63 % reduction.
